# According to the DeepSol protein solubility set:
# Experiment: soluble on expression in E. coli; label from the status in PepcDB or PDB records
row,Sequence,soluble on expression in E. coli
1,MGSDKIHHHHHHMYEDYYRFSAKPFQLNPDPRFFYGSKGHKRAMAYLDYGLSLGEGFIVITGEVGAGKTTLVRNLFRQLEAHNLVAAQLVSTQLDAEDTLRSVAASFGLEHEGLTKSALLKNLESFLAAAARQGKRALLVVDEAQNLTPRAVEELRMLSNFQNDERSLIQTFLLGQPEFRGILQSPDMQQLRQRVVASYHLGPLDADETRGYIEHRLRTVGWQGMPGFDDDAFAALHRFSGGIPRRLNTTCDRLLLFGFLEEKRHFGEAEVDEVIADLRSEVAHQDFDRGAKPDARAADAFYAEDGGRLAQRIEQLERSVNRILPIVRKILYTVSEREAANDDTPQGPHDPAR,not soluble
2,MGSDKIHHHHHHMYETFMKRAIELAKKGLGRVNPNPPVGAVVVKDGRIIAEGFHPYFGGPHAERMAIESARKKGEDLRGATLIVTLEPCDHHGKTPPCTDLIIESGIKTVVIGTRDPNPVSGNGVEKFRNHGIEVIEGVLEEEVKKLCEFFITYVTKKRPFVALKYASTLDGKIADHRGDSKWITDKLRFKVHEMRNIYSAVLVGAGTVLKDNPQLTCRLKEGRNPVRVILDRKGVLSGKVFRVFEENARVIVFTESEEAEYPPHVEKALSDCSVESILRNLYERDIDSVLVEGGSKVFSEFLDHADVVFGFYSTKIFGKGLDVFSGYLSDVSVPPKFKVVNVEFSDSEFLVEMRPCSRE,soluble
3,MGSDKIHHHHHHMYKLNLDIQAFLANDWQQAPKVFKGAFPDFEDPIAADELAGLACEEEVSSRVVVTKGNDWEVISGPFEDYDRFGETHWQLLVQAVNHWYPESQPLVEAFRFLPDWRFDDLMVSFATPQGGVGPHIDNYDVFIIQGEGQRRWTVGPKGNYQRRGGVTTSPLIEDFEPIIDVVLEKGDVLYIPPGFPHQGETLTLALSYSMGYRAPSQQELAGQIADQLMDEDKGHKRFIAVDGAASHGTVSLAEQQGIMQLIRDLCNDTDNVVKVLGKLLSQNRFDLDIQEDESIDADALVEALNEGAVLMRIGGLKVLKMEGDSQARLFVAGESVIIEGASEEELIEVSNSVNVNAELAQLPHWQGFFVQMLQKGYFYLGED,not soluble
4,MGSDKIHHHHHHMYKWHNVFQPIFQIDQNMNHKVDHYEMLLRDENDQFPNHDFFRIISTEEDNQKWIQIEEKSLKNLFSLHPNIHVNLNVEPIQFAYPSVWEFLRRIYDKYGQKVIIEITERQLQAGNIGNRQFDCAFQRINDIGFKIALDDVDSGSNSFSFVNHHVNQISVIKLSLLIFDNVSSGTTISFIDSWAAFAKEKHLDLVIEAVRSKEIAKRFAGNKHIFQQGYYWEKALKLEDIY,not soluble
5,MGSDKIHHHHHHMYLAYYGFAEKPFQLKPDPNFFFPSRGHKRAAAYLEYGLSQEDGFIIITGDVGAGKTTLMRYLFQKLRQERVAAAQLVSTRLDPDDALRMVAAAFGLSYEGLSKAALLLELERFMRKCERESTRVLLVVDEAQNLLPQTLEELRMLSNFQSDNRPLLQTFLLGQPEFRRTLLGSQMQQLRQRVIATYHLGPLDQAETRAYIEHRLQKAGWNGSPVLQDEIFEVIHNFSAGIPRKINLFCDRLLIMGCLEELQTLGKAEANEVMLDIQKEFDLAVSPE,not soluble
6,MGSDKIHHHHHHMYNPVGVAAIGLGRWAYVMADAYTKSEKLKLVTCYSRTEDKREKFGKRYNCAGDATMEALLAREDVEMVIITVPNDKHAEVIEQCARSGKHIYVEKPISVSLDHAQRIDQVIKETGVKFLCGHSSRRLGALRKMKEMIDTKEIGEVSSIEAVFSNERGLELKKGNWRGEPATAPGGPLTQLGVHQIDNLQFLLGPVARVFNFGKPMYTEVENITVNQTLLEFEDGKQAYLGTNWACPGVFSINVYGTKANLFYQLDFSWWSNSDVTDEHSTLIKREFASMSDDPDNRILRDVKVDFESVDHLRVEVEEVADVIRNGGETEIGAEASLRNLAVVLAAVKSVHEKRPVEIAEIIG,not soluble
7,MGSDKIHHHHHHMYQIQIRIWFNFISKNKHHMLGTMSDSYDFFLSMSEITFALDPKYEFDKDIGCVLSLIKNTKELRFRINQYINKYKNKSPSLNRLNTFINTLEENENFYLLPAIENVSQTQLIKLQTSLSLVHLDELGKDAYIKSFNSNFSDFIDQYSMNGIDPKEVKGKKKIGEGFKANRVCRFCNNKNEKPTTFAKEAHAISESLGNKKIILNEECDLCNEYFDQNIERDIDTYLKLYSSFFRVKNKDNKVSKIKGKNFSFEYINTTIDGHDRHIDFVLAHTPTNSESCNSDSEPPKNVDLCFHQKIRKQNIYKSLVKFALSVIHDRKDLSEFNKAIEWIKSPTKFYEQLPKIAILKNYQFYCTEPALIVYISKNKKQGLPYAVGEFHYTFLTYIFIIPLFKSDEVEFSQQNNFDDFIKFFPQFKRMDEWSFEDFSDYEEKEFVLNMILSQRDEG,not soluble
8,MGSDKIHHHHHHMYRVFVFDLDGTLLNDNLEISEKDRRNIEKLSRKCYVVFASGRMLVSTLNVEKKYFKRTFPTIAYNGAIVYLPEEGVILNEKIPPEVAKDIIEYIKPLNVHWQAYIDDVLYSEKDNEEIKSYARHSNVDYRVEPNLSELVSKMGTTKLLLIDTPERLDELKEILSERFKDVVKVFKSFPTYLEIVPKNVDKGKALRFLRERMNWKKEEIVVFGDNENDLFMFEEAGLRVAMENAIEKVKEASDIVTLTNNDSGVSYVLERISTDCLDE,not soluble
9,MGSDKIHHHHHHMYYQLYELHHAALQPARTYADAIRLFYSNPLNPVSSTTWGRSIAAAAEMFERTTRRYGKPGFGITSTVVDGKEVRVQEKEVWSRPFCRLLHFERQLPARRKPDVKLLMVAPMSGHYATLLRGTVEAMLPHADVYITDWIDARMVPLSYGNFDLDDYIDYLIEMFHLLGPDASVMAVCQPSVPVLAAVALMEARGDPNLPSSMTLMGGPIDTRRNPTAVNRLAQEHGIEWFRDNVVMSVPWPNPGFMRPVYPGFLQLSGFMSMNLDRHIVAHEEFFMHLVKGDGDSAEKHREFYDEYLAVMDLTAEFYLQTVDTVFIRHALPKGEMTHRSERVDPASIRSVALLTVEGENDDISGIGQTKAAHDLCVNIPSGKRHHHLQPSVGHYGVFNGSRFRKEILPRIVRFVNENRGA,not soluble
10,MGSDKIHHHHHHNEDNLKIKTIKGDSNELDHININFGYALNGYINSYYTINGSNKTKKTELIKLQKDSKNTNNLIDVSSGSDLIAHVGFEMNEESKDINFVIDEKKEDLEKGVFPSEGSDKEIEYEKLDMNNFTRTRYKVDKSTDDYYAKILASKRYKKYLYVSVLYATSDSSENNKEYSSTIDIIKINPENKKIKTIKSINLSNYFSEKYQNIENIGVSYASKYEDKMYILVNVLNTNIGDNSNSKFHLLEYNLEENKESIMELKTDSKMALAKAKLEANKLYMVMSNDYDNSSITELNLLTYNILDKSLDEDKYVLDNREKRGIRSIEIDSNKIVAYTSRLNSILSWDDKFMLYIINKNSKEIVYEGELQFNSSNSMLEFEIK,not soluble
11,MGSDKIHHHHHHPNDPIIYKKEGGAFLWLGDTAWELFHVLDKEEIVHYLDNRQEKGFTVIQAVILSELDGLDKPNAYGYLPLVDKDPTQITEGYFELVDFVIREAGKRGMYIGLLPTWANNVVEKDGNPALFNPDNAYTYGKILGTRYKNEAVIWILGGDRNVVTDKEFEIWQSMAKGIQEGNGGTQLMSYHPTGEISSHYWFHNESWLSFNILQSGHYRRMDPVYRFSGMYAQLNPIKPFVNAEPSYEDIPVLFWEYFDYAKFGKKKEDIIGDNGLIKDTTYFTDGIYDDYDIRMQAYWTYFSGAAGYTYGNNAIWQMYKPGGKYHVPCLTFWDGALDRPGAECMRYVKSLFTMYPLDRFRPDLSVLFGINYNDASYITPVLAKDKTFILVYLSQGQDVRIQMSKLRSLGKAYWFNPRNGARTLIGPVENKGIRTFNAPGEAGERGNDWILILEADDR,not soluble
12,MGSDKIHHHHHHQEQVKVVDRTIRIGDAMEHPVPMKLSAFVDSITYVPLETTKSYVKDKMLISYVKPYWGVYPGSLFDKEGRFVANIGALGQGPGEESGFGYSIFYDRDRNIFYTQGDKIIQFDAKGKFTGKEIRIAYRDKGIEGKIASGLKNVYAMVKSGKDYLIVNYPDSIFWMDAELNVRHGDRIISDSLFLTPSGVGGGMPYTFSDYKDTTIFYNCFTDAIYTVTDTGLQKRWTLEFKGSKADNRCFLNDYKKLYLDEYVKIVSSSKGNVETMKEKAQNSELAQLIDNKKWVYHVSEGERYLFLWWLNLKAFSSAWRGYNESHIALYDKRTGEAVAIAGDGLIDDIDNGMTFFPRYGICNNAMVSSVWPFELKEYIQEKKAKGEAVSDRLIALADSLDDEQNPILVIAHLKK,not soluble
13,MGSDKIHHHHHHQMEERLGNTSQELQSLQVQNIKLAGSLQHVAEKLCRELYNKAGAHRCSPCTEQWKWHGDNCYQFYKDSKSWEDCKYFCLSENSTMLKINKQEDLEFAASQSYSEFFYSYWTGLLRPDSGKAWLWMDGTPFTSELFHIIIDVTSPRSRDCVAILNGMIFSKDCKELKRCVCERRAGMVKPE,not soluble
14,MGSDKIHHHHHHQRDLWNIFKLWGWTMLCCDFLAHHGTDCWTYHYSEKPMNWQRARRFCRDNYTDLVAIQNKAEIEYLEKTLPFSRSYYWIGIRKIGGIWTWVGTNKSLTEEAENWGDGEPNNKKNKEDCVEIYIKRNKDAGKWNDDACHKLKAALCYTASCQPWSCSGHGECVEIINNYTCNCDVGYYGPQCQFVIQCEPLEAPELGTMDCTHPLGNFSFSSQCAFSCSEGTNLTGIEETTCGPFGNWSSPEPTCQVIQCEPLSAPDLGIMNCSHPLASFSFTSACTFICSEGTELIGKKKTICESSGIWSNPSPICQKLDKSFSMIKEGDYN,not soluble
15,MGSDKIHHHHHHQSFTPGEIWPDNHQVHINAHGGGILYENGTYYWFGEHKTEGEAGNLANVGVHCYSSDDLYHWKDCGIALSVIENDPGHPISKGCILERPKVIYNPLTKKYVMWFHLEPKGAGYSGALSGIALSDRVTGPYTFLKAVRPNAGSWPINVLPIHKTTRRPSAEEERQCTGGSLPAHPDSLNILGRDMEQGQMARDMNLFVDDDGKAYHIYSSEENSTLHIAELDPTYTGYTGKYIRVFINRFMEAPAMFKKDGNYYLIMSGCSGWNPNAARSAIASSIWGEWKELGNPCIGQDADLTFHSQSTYILPVQGKKNQFIYMGDRWTPQNAIDGRYIWLPIHFEGPKPIIEWKDSWTLD,not soluble
16,MGSDKIHHHHHHRSPQGQFTEDDNPNALVNGKIYNVYTMMRSFDITAGTPAIAIHYLRSEDSEKGSIPSDGSDVAEMYDDFLYTPTNGLLGSYWGKNYAIIYQCNDILDAIAEKETAGQTETEDIINKGEASFFRAYCYFNLVRAFGEVPLVTYKINDASEANIPKTTADKIYEQIDTDLKTAEESLPETWSTEYTGRLTWGAARSLHARTYMMRSDWDNMYKASTDVINKGLYNLKTPYNEIFTDDGENSGGSIFELQCTATAALPQSDVIGSQFCEVQGVRGAGQWDLGWGWHMATQLMADAYETGDPRKNATLLYFRKTDDEPITPENTNEPYGESPISPAMGAYFNKKAYTDPALRKEYTNKGFWVNIRLIRYSDVVLMAAEAANEKNIPGEAVDYLEMVRARARGTNTNILPKITTNDQGELREAIRHERRVELGLEPDRFYDLVRWGIASEVLHAAGKVNYQDKNALLPLPQSEIDKSKGVLVQNPDY,not soluble
17,MGSDKIHHHHHHSCGGKKNSGQLSDTAVQIVKPEFPQIVPFETGIETEQEILLSEIADSIRYIPLETNNKCLIRGLKGSNIIRTKEYFFLPWIDKLFQYTKDGKFIRTLGRKGGGPGEFNWIMQIDVDEKKGLVYMLTTTGKINIYSMETGKFIRAMKVPNIEVSEFAMLRVQDTIAATFMRNNNGKRKERIYLSNLKGDTLKIFNRWDLFDLNSKYRWMISSDIDRYMFHYKSHTCYKEYYNDTLFTITQETLEPRYIFQMGKYSLPIECRFEYLNGDGKRFQEVAAPYIQYNTIETDSYIFMPYSNWAGEKEQERQMAIYDKKAKNCFKVSTGHIKNDLTPGLPLRPITALDSHTLLYVWEAPELLEKAEKTPSILQIEPLKGLNEDDNPVMMIVYLKQP,not soluble
